Data reported in patent publication US20180105596A1 (ELSALYS BIOTECH, published 2018).
Substitutions are numbered along the chain they refer to.

T1: Ig-1 and Ig-2 domains fragment of human Tyro3 ECD, His-Strep tagged (human)
T1 construct: also called Ig1-Ig2 fragment
T1 chain: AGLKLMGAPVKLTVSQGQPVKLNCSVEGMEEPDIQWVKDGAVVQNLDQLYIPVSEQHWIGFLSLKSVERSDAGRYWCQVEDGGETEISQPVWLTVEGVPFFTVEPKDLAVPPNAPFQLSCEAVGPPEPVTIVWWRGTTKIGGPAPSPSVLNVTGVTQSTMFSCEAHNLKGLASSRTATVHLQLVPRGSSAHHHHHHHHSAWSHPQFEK

T2: Tyro3 ECD Ig2-FNIII 1
T2 construct: also called Ig2 + FNIII 1 fragment of hTyro3 ECD, His-Strep tagged
T2 fragment: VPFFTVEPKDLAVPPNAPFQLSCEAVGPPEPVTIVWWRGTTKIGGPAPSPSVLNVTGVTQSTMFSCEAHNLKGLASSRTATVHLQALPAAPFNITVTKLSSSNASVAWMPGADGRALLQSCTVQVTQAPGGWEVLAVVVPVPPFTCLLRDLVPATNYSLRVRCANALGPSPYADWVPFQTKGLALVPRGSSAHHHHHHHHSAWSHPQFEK

T3: Tyro3 ECD FNIII 1-FNIII-2
T3 construct: also called FNIII 1 + FNIII 2 fragment of hTyro3 ECD, His-Strep tagged
T3 fragment: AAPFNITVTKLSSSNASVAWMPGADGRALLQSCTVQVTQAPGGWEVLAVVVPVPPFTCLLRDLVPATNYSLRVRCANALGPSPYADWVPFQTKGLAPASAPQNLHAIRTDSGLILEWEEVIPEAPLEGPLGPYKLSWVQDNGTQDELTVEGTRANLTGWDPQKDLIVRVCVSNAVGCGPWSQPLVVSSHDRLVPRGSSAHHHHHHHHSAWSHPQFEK

T4: Ig-1 domain fragment of human Tyro3 ECD, His-Strep tagged (human)
T4 chain: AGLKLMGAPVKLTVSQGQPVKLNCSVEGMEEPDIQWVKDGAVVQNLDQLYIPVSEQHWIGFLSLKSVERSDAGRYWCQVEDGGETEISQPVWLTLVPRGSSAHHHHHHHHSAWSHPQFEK

T5: extracellular domain of human Mer, Fc fusion (R&D Systems 891-MR-100) (human, UniProt Q12866 21-505)
T5 construct: Bought protein; also called hMer; hMER; not shown: Fc of the bought ECD-Fc fusion
T5 sequence: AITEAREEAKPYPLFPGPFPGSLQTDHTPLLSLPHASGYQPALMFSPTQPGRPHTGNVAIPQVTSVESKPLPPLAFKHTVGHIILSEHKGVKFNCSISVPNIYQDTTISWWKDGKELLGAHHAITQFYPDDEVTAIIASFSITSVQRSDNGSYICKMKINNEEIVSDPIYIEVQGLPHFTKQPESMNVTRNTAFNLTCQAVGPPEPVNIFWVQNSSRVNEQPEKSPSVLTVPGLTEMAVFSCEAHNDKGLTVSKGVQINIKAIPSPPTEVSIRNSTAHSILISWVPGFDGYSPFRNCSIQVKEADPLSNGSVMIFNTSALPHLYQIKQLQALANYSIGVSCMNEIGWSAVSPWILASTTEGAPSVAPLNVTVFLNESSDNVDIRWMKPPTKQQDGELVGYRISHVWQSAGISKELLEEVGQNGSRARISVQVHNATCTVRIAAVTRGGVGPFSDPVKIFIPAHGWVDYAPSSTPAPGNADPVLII

T6: hTyro 3-ECD
T6 construct: not the His-Strep tagged ECD m13; also called Recombinant Human Dtk-Fc Chimera (R&D Systems 859-DK-100); not shown: Human Fc, and any linker, of the commercial chimera (R&D Systems 859-DK-100)
T6 chain: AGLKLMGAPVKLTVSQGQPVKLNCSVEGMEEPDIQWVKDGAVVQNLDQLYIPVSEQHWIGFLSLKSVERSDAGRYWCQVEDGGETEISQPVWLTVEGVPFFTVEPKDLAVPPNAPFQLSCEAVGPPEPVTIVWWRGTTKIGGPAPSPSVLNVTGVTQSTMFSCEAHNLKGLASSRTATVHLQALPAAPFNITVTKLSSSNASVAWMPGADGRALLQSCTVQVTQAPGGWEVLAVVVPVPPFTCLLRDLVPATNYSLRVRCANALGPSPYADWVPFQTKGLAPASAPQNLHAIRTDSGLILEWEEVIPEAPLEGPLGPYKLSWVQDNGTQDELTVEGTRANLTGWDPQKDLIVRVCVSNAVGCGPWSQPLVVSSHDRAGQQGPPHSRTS

B1: anti-Tyro3 scFv 2414 (scFv, V domains shown)
VH: EVQLVQSGADVKKPGASLTISCQASGYTFTDYWISWVRQKPGKGLEWMGQINRHASNTMYGPSFQGHVTISADRSTATAYLQWRSLEASDTAMYYCVRSGGATSGGTIPEYYQHWGPGTLVTVSS
VL: SYELTQPPSVSVSPGQTARITCSGDALPKKYAYWYQQKSGQAPVLVIYEDWKRASGIPERFSGSSSGTMATLTISGAQVEDEADYYCYSQERKGNYFVFGGGTKLTVL
notes: Tested as a single-chain Fv made in E. coli
B2: anti-Tyro3 scFv 2717 (scFv, V domains shown)
VH: EVQLVQSGADVKKPGASLTISCQASGYTFTDYWISWVRQKPGKGLEWMGEIFLPPSTTVYGPSFQGHVTISADRSTATAYLQWRSLEASDTAMYYCVRQTRLTSGGTIPEYYQHWGPGTLVTVSS
VL: B1 VL with W51N, A54G, Q90K, E91S, R92P, K93E, F97M
notes: as for B1
B3: anti-Tyro3 scFv 2415 (scFv, V domains shown)
VH: B1 VH with N52R, R53G, H54P, N57A, M59H, S99H, G100Q, G101Q, A102Q
VL: B1 VL with W51K, A54I, Q90T, E91S, R92T, K93G, F97M
notes: as for B1
B4: anti-Tyro3 scFv 2412 (scFv, V domains shown)
VH: B1 VH with Q50R, N52R, R53P, H54L, A55L, N57H, G100W, G101L
VL: B1 VL with W51A, A54V, Q90A, E91S, R92A, K93N, F97R
notes: as for B1
B5: anti-Tyro3 scFv 2709 (scFv, V domains shown)
VH: B1 VH with Q50A, N52S, H54N, A55G, N57T, M59Y, A102L, T122P
VL: B1 VL with W51K, A54V, Q90L, E91A, R92V, K93D, F97G
notes: as for B1
B6: anti-Tyro3 scFv 2713 (scFv, V domains shown)
VH: B1 VH with Q50R, N52S, A55G, N57Q, M59Y, S99A, A102Q
VL: B1 VL with W51H, Q90I, E91S, R92P, K93A, F97G
notes: as for B1
B7: anti-Tyro3 scFv 2711 (scFv, V domains shown)
VH: B1 VH with N52R, R53G, H54Q, A55H, N57S, M59L, S99H, G101A, A102S
VL: B1 VL with W51A, A54S, Q90L, E91S, R92D, K93S
notes: as for B1
B8: anti-Tyro3 scFv 2410 (scFv, V domains shown)
VH: B1 VH with N52V, R53P, H54R, N57R, M59N, S99P, G100Y, G101F, A102Q
VL: B1 VL with W51E, K93N, F97A
notes: as for B1

Biological target: T1, Ig-1 and Ig-2 domains fragment of human …
Assay: sandwich ELISA, Strep-tagged fragment captured on StrepMAB plate, scFv 10 µg/mL (Table 17), anti-FLAG-HRP

Binder | binding result
B1 | binds
B2 | no binding (tested: 10 µg/mL)
B3 | binds
B4 | binds
B5 | binds
B6 | binds
B7 | binds
B8 | binds

Biological target: T2, Tyro3 ECD Ig2-FNIII 1
Assay: as above

Binder | binding result
B2 | no binding (tested: 10 µg/mL)
B3 | binds
B4 | binds
B5 | no binding (tested: 10 µg/mL)
B6 | binds
B7 | binds

Biological target: T3, Tyro3 ECD FNIII 1-FNIII-2
Assay: as above

Binder | binding result
B1 | no binding (tested: 10 µg/mL)
B2 | no binding (tested: 10 µg/mL)
B3 | no binding (tested: 10 µg/mL)
B4 | no binding (tested: 10 µg/mL)
B5 | no binding (tested: 10 µg/mL)
B6 | no binding (tested: 10 µg/mL)
B7 | no binding (tested: 10 µg/mL)
B8 | no binding (tested: 10 µg/mL)

Biological target: T4, Ig-1 domain fragment of human Tyro3 …
Assay: as above

Binder | binding result
B1 | binds
B2 | binds
B3 | binds
B4 | binds
B5 | binds
B6 | binds
B7 | binds
B8 | binds

Each binder was assayed against T5, extracellular domain of human Mer, Fc … (assay: ELISA, ECD coated 1 µg/well, scFv 1 µg/mL, anti-tag-HRP).
Experimental: (§1) Extracellular domains of hTyro 3 (859-DK-100), hAxl (154-AL-100) or hMer (891-MR-100) from R&D Systems were coated onto 96-wells microtiter plates (1 μg/well) in PBS and incubated overnight at 4° C. Plates were washed three times with PBS and blocked in PBS/3% BSA for 1 hour at RT. Plates were washed as above and scFvs were added at 1 μg/mL (diluted in PBS) and incubated for 1 hour at RT. Plates were washed three times with PBST (PBS/0.01% Tween-20) and secondary antibody anti-FLAG-HRP was added (Abcam, ab49763, 1/5000 dilution in blocking buffer) for 1 hour at RT. Plates were washed as above with PBST and signal was developed with Ultra-TMB reagent (Thermo Scientific, 34028).

Binder | binding result
B1 | no binding (tested: 1 µg/mL)
B2 | no binding (tested: 1 µg/mL)
B3 | no binding (tested: 1 µg/mL)
B4 | no binding (tested: 1 µg/mL)
B5 | no binding (tested: 1 µg/mL)
B6 | no binding (tested: 1 µg/mL)
B7 | no binding (tested: 1 µg/mL)
B8 | no binding (tested: 1 µg/mL)

Biological target: T6, hTyro 3-ECD
Assay: as above
Experimental: as §1

Binder | binding result
B1 | binds
B3 | binds
B4 | binds
B5 | binds
B6 | binds
B7 | binds
B8 | binds
